Experiments:
purified protein [1] = substrate: NC(=O)C1=CN([C@@H]2O[C@H](COP(=O)(O)OP(=O)(O)OC[C@H]3O[C@@H](n4cnc5c(N)ncnc54)[C@H](OP(=O)(O)O)[C@@H]3O)[C@@H](O)[C@H]2O)C=CC1; experiment: purified protein; type: biochemical, Kluyveromyces marxianus; settings: 100 mM acetate pH 5.5, 25°C, co-substrate methylglyoxal (5 mM in the standard assay), kcat unit as printed, presumably min^−1, varied: cofactor
purified protein [2] = substrate: CC(=O)C=O; experiment: purified protein; type: biochemical, Kluyveromyces marxianus; settings: 100 mM acetate pH 5.5, 25°C, 0.2 mM NADPH

B1: KmGRE2 (YGL157w gene product) (Kluyveromyces marxianus) (protein)
chain: MTYVVVTGASGYLAQHVIKQLLERNYKVIGTVRNQQKAKDIAKLFQNDNLTLELVPDLLQADVFDDLFLKYTGQIKHVIHTASPCRFDTTEYENEMLLPAINGTKRVLESIKKYASETVETVVYTSSVSALANPAGILDSNLTLTEESWNPDSFEDGKKDVFSAYYVSKTFAERTAWDFWKENKDQVKFQLTTICPSYIFGPQAFEENAKGTLNFSTEIVNKILHSKPGDELDKNFAGAFVDVRDVARAHVLALEKPELKSKRLVLLNDVYALQDVADYINKHFPELRGKIATGVPGEGKEIVKYIAHYDNSKTKKLLGFEFISFGQAITDTVAQILKANN
notes: monomer, about 36 kDa by gel filtration, 40 kDa by SDS-PAGE
Purified protein [1]
  Km: 28 ± 1.2 µM
Purified protein [2]
  Km: 300 ± 18 µM
  kcat: 1.3 × 10^3 ± 15 min^−1

— paper PMC4385108, “Characterization of the Kluyveromyces marxianus strain DMB1 YGL157w gene product as a broad specificity NADPH-dependent aldehyde reductase” (AMB Express, 2015)
